Data on 2 molecules can be found in patent US11708423B2, “Chimeric engulfment receptor molecules and methods of use” (CERO THERAPEUTICS, INC., priority 2017, dated 2023).

For assay [1], the system named is CER-transduced CD4+ T cells. Description: Mass cytometry (CyTOF) with viSNE marker analysis of CER-transduced CD4+ T cells. Conditions: CD4+ T cells after co-culture with E7 TCR CD8+ T cells and SCC152 cells. The class given is cell-based, human. The source says: CD4+ T cells were transduced with lentiviral vector comprising CER104, CER116, or CER117 nucleic acid. CER104 (SEQ ID NO:133) comprises a Tim4 binding domain, Tim4 transmembrane domain, and an engulfment signaling domain comprising a primary engulfment signaling domain comprising a TLR8 signaling domain and a secondary engulfment signaling domain comprising a DAP12 signaling domain. CER116 (SEQ ID NO:143) comprises a Tim4 binding domain, Tim4 transmembrane domain, and an engulfment signaling domain comprising a primary engulfment signaling domain comprising a TRAF6 signaling domain and a secondary engulfment signaling domain comprising a TLR8 signaling domain. CER117 (SEQ ID NO:144) comprises a Tim4 binding domain, Tim4 transmembrane domain, and an engulfment signaling domain comprising a primary engulfment signaling domain comprising a TLR8 signaling domain and a secondary engulfment signaling domain comprising a TRAF6 signaling domain. CER-transduced CD4+ T cells were co-cultured with E7 TCR-transduced CD8+ T cells and HPV+SCC152 target cells and interrogated by mass cytometry (CyTOF) with viSNE for visualization of high dimensional single cell data (FIGS. 82-84). Intact CER-transduced CD4+ T cells are shown in plots displaying tSNE1 (horizontal) and tSNE2 (vertical) axes. 27 intracellular markers were used for the viSNE analysis. Each dot represents a single cell. […] Red represents high expression and blue represents low expression for each marker. Populations of CD4^+ T cells were generated using a clustering algorithm from all 27 markers and overlaid onto the viSNE map. […] Populations of CD4^+ T cells were generated using a clustering algorithm from all 18 markers and overlaid onto the viSNE map (FIG. 83A). […] Color plots by 18 intracellular markers (CD28, CCR7, CD45RA, PD1, CD127, Perforin, CD49d, CD85j, CD38, CD27, Granzyme B, CD57, CD25, CD69, CD154, CD56, HLA-DR, and TCRγδ) show the phenotype across viSNE ‘islands’ (FIG. 83B). Red represents high expression and blue represents low expression for each marker. Highlighted region with arrow indicates cells expressing T cell activation marker CD69. Populations of CD4^+ T cells were generated using a clustering algorithm from 18 intracellular markers (CD28, CCR7, CD45RA, PD1, CD127, Perforin, CD49d, CD85j, CD38, CD27, Granzyme B, CD57, CD25, CD69, CD154, CD56, HLA-DR, and TCRγ6) and overlaid onto the viSNE map. […] Color plots by the 18 intracellular markers show the phenotype across viSNE ‘islands’ (FIG. 84B). Red represents high expression and blue represents low expression for each marker. Highlighted region with arrow indicates cells expressing the naïve T cell marker CD45RA.

The subject of a further assay is ALK+A549 cells. Description: Phagocytosis of ALK inhibitor treated A549 ALK+ cells by CER T cells (fluorescent microscopy). The class given is cell-based. Conditions: 12 hours, CD4 T cells. The source says:
An ELM4-ALK translocation was introduced into A549 cells. […] CD4 T cells are modified to express CER104 or CER117 and labeled with CELLTRACE Violet. CER117 has a polypeptide sequence set forth in SEQ ID NO:144 and comprises a Tim4 binding domain, a Tim4 transmembrane domain, and an engulfment signaling domain comprising a primary engulfment signaling domain comprising a TLR8 signaling domain and a secondary engulfment signaling domain comprising a TRAF6 signaling domain. The ALK+A549 cells were then co-cultured with CER104- or CER117-expressing CD4+ T cells or Mock-transduced (vector only) T cells for 12 hours and images were obtained by fluorescent microscopy at 40× magnification (FIGS. 62A-E). White arrows indicate exemplary phagocytic events (pH rodo red cell targets within CELLTRACE Violet labeled CD4+ T cells).
CER123- and CER126-transduced CD4+ and CD8+ T cells were labeled with CELLTRACE Violet and co-cultured with the A549 ALK-positive cells. Co-cultured cells were imaged by fluorescent microscopy at 63× magnification after 12 hours (FIGS. 63A-F). White arrows indicate exemplary phagocytic events (pHrodo red targets within CELLTRACE Violet-labeled CD4 T cells).
Phagocytosis of Alectinib-treated ALK+A549 cells by CER-expressing T cells was also quantified. […] Bar graph in FIG. 64A represents quantification of percentage phagocytosis calculated as ((number of phagocytic target events)/(total number of effector cells))*100. Events were calculated from fluorescent 3×3 stitched images at 40×resolution after 12 hours of co-culture. Bar graph in FIG. 64B represents quantification of adjusted phagocytic index calculated as (median area ratio of target events in effector cells*phagocytosis). Events calculated from fluorescent 3×3 stitched images at 40×resolution after 12 hours of co-culture.
CER21−, CER27−, CER30−, CER108−, CER110−, CER112−, CER120−, CER123−, CER124−, CER126−, CER127−, or CER104-transduced CD4+ T cells were co-cultured with Alectinib-treated A549 cells at a 1:1 ratio for 12 hours. Phagocytic events were calculated from 3×3 stitched fluorescent microscopy images at 40X resolution. […] Images were obtained after 12 hours of co-culture. Yellow triangles indicate exemplary phagocytic events (pHrodo red targets within CELLTRACE violet labeled CD4+ T cells).
A time course study of phagocytic uptake of tumor cells by CER-transduced T cells was performed. CD4+ T cells were transduced with a lentiviral vector comprising CER122 nucleic acid. Mock-transduced (vector only) CD4+ T cells were used as control. CER122-transduced T cells were labeled with CELLTRACE violet and co-cultured with pHrodo red labeled A549 ALK+ lung adenocarcinoma cells. Fluorescent microscopy images were obtained at 4, 8, and 16 hours co-culture (FIG. 72C), and % phagocytosis (FIG. 72A) and phagocytic index (FIG. 72B) were calculated.

The test system of assay [2] is SCC152 cells. Description: Magnitude breadth of phagocytosis by CER-transduced CD4+ T cells. Particulars: 8 hours co-culture with CD8/E7 TCR T cells and SCC152 cells. The assay is classed as cell-based, human. Here is the method: Various CER-modified CD4+ T cells were also evaluated for breadth of response to determine whether a particular CER confers a broad phagocytic response of low magnitude (e.g., 10% engulfment in 90% of cells) or a less frequent but strong phagocytic response (e.g., 90% engulfment in 10% of cells) in the host cells. CD8+ T cells were transduced with HPV16 E7 specific TCR as described in Example 5. CD4+ T cells were transduced with lentiviral vectors comprising a CER21, CER27, CER104, CER116, or CER117 nucleic acid. Mock-transduced (vector alone) CD4+ T cell were used as control. CD4+/CER+ and CD8+/E7 TCR+ T cells were stained with CELLTRACE violet. […] HPV16 E7 TCR transduced CD8+ T cells and selected CER transduced CD4+ T cells were mixed at a 1:1 ratio and co-cultured with SCC152 cells at a 1:1 ratio for 8 hours. Phagocytosis of target SCC152 cells by CER-transduced CD4+ T cells was analyzed by fluorescence microscopy. […] The horizontal axis represents the % area of CER-transduced CD4+ T cells having engulfment or % area of […]. This measure was rarely above 40% across CER types tested. The vertical axis represents the proportion of CER-transduced CD4+ T cells that were phagocytic. For CER104, about 20% of CER104-transduced CD4+ T cells have more than 10% engulfment. For CER117-transduced CD4+ T cells, less than 10% have more than 10% engulfment.

Assay [3] relates to SCC152 cells. Kind of assay: Phagocytic activity of tandem expression cassette transduced CD8+ T cells. The assay is classed as cell-based, human. Here is the method: Phagocytic activity of tandem expression cassette transduced CD8+ T cells was detected by co-culturing tandem expression cassette transduced CD8+ T cells with SCC152 cells for 6 hours at a 1:1 ratio. Phagocytic events were visualized and quantified using KEYENCE BZ-X710 fluorescence microscope, 20X objective and hybrid capture software.

B1: CER117: Tim4 binding and transmembrane domains, TLR8 primary and TRAF6 secondary signaling domains; SEQ ID NO:144 (protein)
chain: MSKGLLLLWLVTELWWLYLTPAASEDTIIGFLGQPVTLPCHYLSWSQSRNSMCWGKGSCPNSKCNAELLRTDGTRIISRKSTKYTLLGKVQFGEVSLTISNTNRGDSGVYCCRIEVPGWFNDVKKNVRLELRRATTTKKPTTTTRPTTTPYVTTTTPELLPTTVMTTSVLPTTTPPQTLATTAFSTAVTTCPSTTPGSFSQETTKGSAFTTESETLPASNHSQRSMMTISTDIAVLRPTGSNPGILPSTSQLTTQKTTLTTSESLQKTTKSHQINSRQTILIIACCVGFVLMVLLFLAFLHHLFYWDVWFIYNVCLAKVKGYRSLSTSQTFYDAYISYDTKDASVTDWVINELRYHLEESRDKNVLLCLEERDWDPGLAIIDNLMQSINQSKKTVFVLTKKYAKSWNFKTAFYLALQRLMDENMDVIIFILLEPVLQHSQYLRLRQRICKSSILQWPDNPKAEGLFWQTLRNVVLTENDSRYNNMYVDSIKQYMSLLNCENSCGSSQSESDCCVAMASSCSAVTKDDSVGGTASTGNLSSSFMEEIQGYDVEFDPPLESKYECPICLMALREAVQTPCGHRFCKACIIKSIRDAGHKCPVDNEILLENQLFPDNFAKREILSLMVKCPNEGCLHKMELRHLEDHQAHCEFALMDCPQCQRPFQKFHINIHILKDCPRRQVSCDNCAASMAFEDKEIHDQNCPLANVICEYCNTILIREQMPNHYDLDCPTAPIPCTFSTFGCHEKMQRNHLARHLQENTQSHMRMLA
modifications: CER117 protein
B1: in assay [1], the “viSNE islands expressing intracellular marker IFNγ” value is on record as “enrichment of islands expressing the intracellular marker IFNγ”. In addition, the “phagocytosis of A549 cells” value with ALK+A549 cells (1 μM Alectinib) and in the assay on ALK+A549 cells (1 μM Crizotinib) was “phagocytosed A549 cells” throughout. In the assay with SCC152 cells [2], the “proportion of CER-transduced CD4+ T cells that have more than 10% engulfment” value is “less than 10%”.

B2: CER31−HPV16 E7 TCR: tandem expression cassette: CER31, T2A peptide, HPV16 E7 specific TCR; SEQ ID NO:170 (protein)
chain: MSKGLLLLWLVTELWWLYLTPAASEDTIIGFLGQPVTLPCHYLSWSQSRNSMCWGKGSCPNSKCNAELLRTDGTRIISRKSTKYTLLGKVQFGEVSLTISNTNRGDSGVYCCRIEVPGWFNDVKKNVRLELRRATTTKKPTTTTRPTTTPYVTTTTPELLPTTVMTTSVLPTTTPPQTLATTAFSTAVTTCPSTTPGSFSQETTKGSAFTTESETLPASNHSQRSMMTISTDIAVLRPTGSNPGILPSTSQLTTQKTTLTTSESLQKTTKSHQINSRQTILIIACCVGFVLMVLLFLAFLMESSKKMDSPGALQTNPPLKLHTDRSAGTPVFVPEQGGYKEKFVKTVEDKYKCEKCHLVLCSPKQTECGHRFCESCMAALLSSSSPKCTACQESIVKDKVFKDNCCKREILALQIYCRNESRGCAEQLMLGHLLVHLKNDCHFEELPCVRPDCKEKVLRKDLRDHVEKACKYREATCSHCKSQVPMIALQKHEDTDCPCVVVSCPHKCSVQTLLRSELSAHLSECVNAPSTCSFKRYGCVFQGTNQQIKAHEASSAVQHVNLLKEWSNSLEKKVLEGGGEGRGSLLTCGDVEENPGPMAPGLLCWALLCLLGAGLVDAGVTQSPTHLIKTRGQQVTLRCSPKSGHDTVSWYQQALGQGPQFIFQYYEEEERQRGNFPDRFSGHQFPNYSSELNVNALLLGDSALYLCASSLGWRGGRYNEQFFGPGTRLTVLEDLRNVTPPKVSLFEPSKAEIANKQKATLVCLARGFFPDHVELSWWVNGKEVHSGVCTDPQAYKESNYSYCLSSRLRVSATFWHNPRNHFRCQVQFHGLSEEDKWPEGSPKPVTQNISAEAWGRADCGITSASYQQGVLSATILYEILLGKATLYAVLVSTLVVMAMVKRKNSRAKRSGSGATNFSLLKQAGDVEENPGPMWGVFLLYVSMKMGGTTGQNIDQPTEMTATEGAIVQINCTYQTSGFNGLFWYQQHAGEAPTFLSYNVLDGLEEKGRFSSFLSRSKGYSYLLLKELQMKDSASYLCASVDGNNRLAFGKGNQVVVIPNIQNPEPAVYQLKDPRSQDSTLCLFTDFDSQINVPKTMESGTFITDKCVLDMKAMDSKSNGAIAWSNQTSFTCQDIFKETNATYPSSDVPCDATLTEKSFETDMNLNFQNLLVIVLRILLLKVAGFNLLMTLRLWSS
modifications: CER31_T2A_HPV16_E7_TCR tandem cassette
As for B2, the “phagocytosis of SCC152 cells” value in the assay with SCC152 cells [3] (CD8+ T cells, 6 hours, 1:1 ratio) is reported as “capable of phagocytosing SCC152 cells”. Moreover, the “dependence of engulfment of SCC152 cells on Racl” value in the assay with SCC152 cells [3] (Racl inhibitor NSC23766 (50 μM), data not shown) is reported as “Racl-dependent manner”.
